# Test results from publication PMC10397247.
# T1: P2SHb
# T1 chain: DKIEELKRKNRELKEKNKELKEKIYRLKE
# T2: P3SHb
# T2 chain: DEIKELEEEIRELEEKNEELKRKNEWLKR
# T3: P4SHb
# T3 chain: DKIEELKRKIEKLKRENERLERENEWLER
# T4: P5SHb
# T4 chain: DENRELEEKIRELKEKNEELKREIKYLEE
# T5: P6SHb
# T5 chain: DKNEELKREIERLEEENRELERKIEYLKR
# T6: P7SHb
# T6 chain: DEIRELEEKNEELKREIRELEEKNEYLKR
# T7: P8SHb
# T7 chain: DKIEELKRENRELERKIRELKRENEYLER
# T8: P9SHb
# T8 chain: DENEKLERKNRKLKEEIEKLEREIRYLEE
# T9: 4H3592-bA
# T9 chain: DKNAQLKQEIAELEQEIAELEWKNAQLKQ
# T10: 4H3601-bA
# T10 chain: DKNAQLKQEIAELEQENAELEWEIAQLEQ
# T11: 4H3907-bA
# T11 chain: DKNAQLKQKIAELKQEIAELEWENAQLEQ
# T12: 4H4038-bA
# T12 chain: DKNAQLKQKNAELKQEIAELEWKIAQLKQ
# T13: P4A-bH
# T13 chain: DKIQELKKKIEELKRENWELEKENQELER
# What was measured:
# Test in all cases: two-hybrid library CCNG1;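 also: natural log of median RNA to DNA barcode read ratio; higher means stronger binding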
# P2SHb = target: T1, P2SHb
# P3SHb = target: T2, P3SHb
# P4SHb = target: T3, P4SHb
# P5SHb = target: T4, P5SHb
# P6SHb = target: T5, P6SHb
# P7SHb = target: T6, P7SHb
# P8SHb = target: T7, P8SHb
# P9SHb = target: T8, P9SHb
# 4H3592-bA = target: T9, 4H3592-bA
# 4H3601-bA = target: T10, 4H3601-bA
# 4H3907-bA = target: T11, 4H3907-bA
# 4H4038-bA = target: T12, 4H4038-bA
# P4A-bH = target: T13, P4A-bH
interaction score (P2SHb),interaction score (P3SHb),interaction score (P4SHb),interaction score (P5SHb),interaction score (P6SHb),interaction score (P7SHb),interaction score (P8SHb),interaction score (P9SHb),interaction score (4H3592-bA),interaction score (4H3601-bA),interaction score (4H3907-bA),interaction score (4H4038-bA),interaction score (P4A-bH),Binder
-0.669,-0.091,0.291,0.588,0.195,0.49,-0.265,-1.55,–,–,–,–,–,DKIEELKRKNRELKEKNKELKEKIYRLKE [P2SHb]
–,–,–,–,–,–,–,–,-0.131,-0.03,0.467,-0.458,1.36,DKNAQLKQEIAELEQEIAELEWKNAQLKQ [4H3592-bA]
